Test results as given in the nanobody polyreactivity screen of Harvey et al. (2022).

Assay: yeast display, Sf9 membrane polyspecificity reagent, FACS + sequencing; frameworks hold sequencing errors
Method in brief: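 A nanobody's polyreactivity label depends on the gate it was sorted from. Yeast display cells were stained with 10% biotinylated, detergent-solubilized Sf9 membrane reagent for 1 hour at 4 °C, enriched on streptavidin microbeads and sorted by FACS. The low and high (top ~1%) gates were set on anti-HA fluorescence for expression and streptavidin fluorescence for reagent binding.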

Sequence | polyreactivity (PSR sort gate)
QVQRVESGGGLVQAGGSLRLSCAASGFIFYDYMGWYRQAPGKERVLVAVISYSGSSTYYADSVKGRFTISRDNAKNTVYLQMNSLKPEDNAVYYCAARKVNGWDYDYWGQGTQVTVSS | low polyreactivity
QVQRVESGGGLVQAGGSLRLSCAASGFIFYGNTMGWYREAPGKERELVASITSGSSTHYAYSVKGRFTISRDNAKNTVYLQMNSLKPEDTAVYYCIVDDIQFGKYDYWGQGTQVTVSS | low polyreactivity
QVQRVESGGGLVQAGGSLRLSCAASGIIFDSYAMGWYRQAPGKERELVAAITSDSGRTYYADSVKGRFTISRDNAKNTVYLQMNSLKPEDTAVYYCAKGWDGTYDYWGQGTQVTVSS | low polyreactivity
QVQRVESGGGLVQAGGSLRLSCAASGRIFSNYAMGWYRQAPGKEREFVAAISGSGGSTYYADSVKGRFTISRDNAKNTVYLQMNSLKPEDTAVYYCSTSGPQYYSRNFDYWGQGTQVTVSS | low polyreactivity
QVQRVESGGGLVQAGGSLRLSCAASGRIFSWYTMGWYRQAPGKERELVAVITSGGTTKYADSVKGRFTISRDNAKNTVYLQMNSLKPEDTAVYYCNVAGRDYAVRWGSFDYWGQGTQVTVSS | low polyreactivity
QVQRVESGGGLVQAGGSLRLSCAASGRIFVRNVMGWYRQAPGKEREFVAAITTRGGSTYYADSVKGRFTISRDNAKNTVYLQMNSLKPEDTAVYYCAARYTLRLYWGQGTQVTVSS | high polyreactivity
QVQRVESGGGLVQAGGSLRLSCAASGRIFYPNAMGWYRQAPGTEREWVAGITRGGSTNYADSVKGRFTISRDNAKNTVYLQMNSLKPDDSAVDYCAKAIPAKIYSEAGSDYWGQGTQVTVSS | low polyreactivity
QVQRVESGGGLVQAGGSLRLSCAASGRILGKYAMGRYIQAPGKEREVVAAIRLRGGSTYYADSVKGRFTISRDNAKNTVYLQMNSLKPEDTAVYYCAATYWDRSQAYNYWGQGTQVTVSY | high polyreactivity
QVQRVESGGGLVQAGGSLRLSCAASGRTFAGYAMGWYRQAPGKERELVAAITTGGSTKYADSVKGRLTISRDNAKNTVFLQRTSLKPEDTAVYYCNARKRVYSGNTLMYYWGQGTQVTVSS | high polyreactivity
QVQRVESGGGLVQAGGSLRLSCAASGRTFLQYAMGWYSQAPGKVREFVAAINWSGGSTYYAASVKRRFTISRDNAKNTVYLPMHSLKPEDTAVYYCAARRVYLGEYDYWGQGTQVTVSS | high polyreactivity
QVQRVESGGGLVQAGGSLRLSCAASGRTFRYYAMGWYRQAPGKERELVAAITSGGSTSYADSVKGRFTISRDNAKNTVYLQMNSLKPEDTAVYYCAAVPAGLWATYPQFRYGYWGQGTQVTVSS | high polyreactivity
QVQRVESGGGLVQAGGSLRLSCAASGRTFSKNAMGRTRQAPGQETELVAAISGSGGSTYYADSVKGRFTISRDNAKNTVYLQMNSLKPEDTAVYYCADRYTVRRSGYWGQGTQVTVSS | high polyreactivity
QVQRVESGGGLVQAGGSLRLSCAASGRTFYPYLMGWYRQSPGKERELVARIRWSGSSTYYADSVKGRFTISRDNAKNTVYFQMNSLKPEDTAVYYCNARPSWYVFGSSVHSGMGYWGQGTQVTVSS | high polyreactivity
QVQRVESGGGLVQAGGSLRLSCAASGSIFFDGNAMGWYRQAPGQERELVAAISVSGGSTYYADSVKGRFTISRDNAKNTVYLQMNSLKPEDTAVYYCAKYPSKSYVPGDYWGQGTQVTVSS | low polyreactivity
QVQRVESGGGLVQAGGSLRLSCAASGSIFGPNAMGWYRQAPGKERELVAAITLSGGSTYYADSVKGRFTISRDNAKNTVYLQMNSLKPEDTAVYYCAAEYYQTTYVWWTYDYYWGQGTQVTVSS | low polyreactivity
QVQRVESGGGLVQAGGSLRLSCAASGSIFLSYDMGWYRQAPGKERELVAAITQSGGSTYYADSVKGRFTISRDNAKNTVYLQMNSLKPQDTAVYSCAVRVSGPRGYDYEYWGQGTQVTVSS | low polyreactivity
QVQRVESGGGLVQAGGSLRLSCAASGSIFSSNVMGWYRQAPGKEREIVAAITTGGSTNYADSVKGRFTISRDNAKNTVYLQMYCLKREDTAFYYCSFSYGYYLFVDWGYGCWGQGSQVTVSS | low polyreactivity
QVQRVESGGGLVQAGGSLRLSCAASGSIFYQYAMGWYRQAPGKEREVVAAITIGGSTNYADSVKGRFTISRDNAKNTVYLQMNSLKPEDTAVYYCNADKNWYGHEYDYWGQGTQVTVSS | low polyreactivity
QVQRVESGGGLVQAGGSLRLSCAASGSIIAGYPMGWSRQAPGKERELVAGIRRGGSTNYADSVKGRFTISRDNAKKTVYLQMNSLKPEDTAVYYCNAQRTRSYVLRTFDYWGQGTQVTVSS | high polyreactivity
QVQRVESGGGLVQAGGSLRLSCAASGSIIQPYARGWYRQSPGKERELVAAIRSSTGSTYYADSVKGRFTISRDIAKNTVYLQQNSLKPEDSAVYYCARRRWSYVRGYSSGMYYWGQGTQVTVSS | high polyreactivity
QVQRVESGGGLVQAGGSLRLSCAASGSTFPRNAMGWYRQAPGKEREFVAAISYSGGRTYYADSVKGRFTISRDNAKNTVYLQMNSLKPEDTAVYYCAAQPYSHVRGKSYGYWGQGTQVTVSS | high polyreactivity

Sequence | polyreactivity (PSR sort gate)
QVQRVESGGGLVQAGGSLRLSCAASGSTLYGYALGWYRQAPGKERELVAAISVSGGRTYYADSVKGRFTISRDNAKNTVYLQMNSLKPEDTAVYYCAADGLSPYSGDYWGQGTQVTVSS | high polyreactivity
QVQRVESGGGLVQAGGSLRLSCAGTGSIFTSNAMRWYRQARGNERELVASISYISGGTYYADSVKGRFTISRDNAKNTVYLQMNSLKPEDTAVYYCAAEQTWGSCQYDPRTYDYWGQGNQVTVSS | low polyreactivity
QVQRVESGGGLVQAGGSLRLSSPASGRMGWYRQAPGKERELVAAITSGDRTNYADSVKGRFTISRDNAKNTVYLQMNSLKPEDTAVYYCATERSWYHGFIDPRGYWGQGTQVTVSS | low polyreactivity
QVQRVESGGGLVQAGGSLRLTCAPSGFIFYYYAMGWYRQAPGKEMQLVAAIDSGGSTYADSVNGRFTISRDNAKNTVYLQMTSLKPEDTAVYYCAADYYLPWYPDYDYWGQGTQVTVSS | low polyreactivity
QVQRVESGGGLVQARGSLRLSCAASGRIFTKYAMGWYRQAPGKVRELVAGITSRGGSTYYADSVKGRFTISRDIANNTGYLQMNSLKPEDTAVYYCNAYRVGRYDYWGQGTQVTVSS | high polyreactivity
QVQRVESGRGLFHAGGSLRLSCAASGSIFIWNDMGWYRQAPGKERELVAAITISAGSTSYADSVKGRFTISRDNAKNTVYLQMKSLKPEDTAVYYCAAASWLGAYGYEYDYWGQGTQVTVSS | low polyreactivity
QVQRVESRGGLVQAGGTLRLSCAASGSTFGVNAKGCYSQAPGKDRELVATISRGTSTNYADSVKGRFTISRDNAKNTVYLQMNSLKPEDTAVYYCAKRVFYPGAYRYYYCGQGTQVTVSS | high polyreactivity
QVQVLESGGGLFQAGGRLRLSCAASGRTFRSYAMGWYRQAPGKERELVAAIRRGGSTNYADSVKGRFTISRDNAKNTVYLQMNSEKPEDTAVYYCAARGWSYRSVGYMDYWGQGTQVTVSS | high polyreactivity
QVQVLESGGGLVQAGGSLRLSCAASGRTFYWNAMGWYRQAPGKERELDAVISQSGGSTYYADSVKGRFTISRDNAKNTVYLQMNSLQPEDTAVYYCNKATRHHFYYWGQGTQVTVSS | high polyreactivity
QVQVVESGAGEVQAGGSLRLSCAASGSIFPFNAMGWYRQAPGKERELVAAISVNGGSTYYADSVKGRFTISRDNAKNTVYIQMNSLKPEDTAVYYCNTGGTFLDWVRRPFGFGYWGQGTQVTVSS | low polyreactivity
QVQVVESGGALVQAGGSLRLSCAASGSTFYNYAMGWYRPAPGKERELVAAISSGGGITYYADSVKGRFTISRDNAKNNVYVQMNSLKPEDTAFYYCNARRKYLGYNYWGQGTQVTVSS | high polyreactivity
QVQVVESGGGFVQAGGSLRISCAASGRIFATYAMGWYRQAPGKERELVAAISDSGGRTYYADSVKGRFTISRDTAKNTVYFQMNSLKPEDTAVYYCNARGTRASRYDYWGQGTQVTVSS | high polyreactivity
QVQVVESGGGIVHAEGSLRLSCAPSGLTFPVYAMVWYRQAPRKERELVAAISKSGGNTYYADSVKGRFTISRDNAKNTVYLQMNSLKPEDTAVYYCAAGYLSGNYARYGYWGQGTQVTVSS | high polyreactivity
QVQVVESGGGIVQAGGSLGLSCAASGSNFSYNAMGWYRQAPRKERELVATISNTDSTNYADSVKGRFTISRDNAKNTVYLQMNSLKPEDTAVYYCAVVSARIDYEYWGQGTQVTVSS | low polyreactivity
QVQVVESGGGLVHAGGSHRLSCAASGSIFPPYSMGWYRQAPGKEREFVAAISYSGGSTYYADSVKGRFTISRDNGKHTVYFQMNSLKPEDTAVYYCGADRYGFYLESYYWGQGTQGTVSS | low polyreactivity
QVQVVESGGGLVKAGGSLRLSCDASGSTFRDYVMGWYRQAPGKERELVAAITGSGSSTYYADSVKGRFTISRDNAKNSVYLQMNSLKPEDTAVYYCAATWVVSYRVNRSYYWGQGTQVTVSS | low polyreactivity
QVQVVESGGGLVQAGGCLRLSCAASGVIFVGYAMGWYRQAPGKERELVAAISWSGGSTYYADSVKGRFTISRDKAKNTVYLQMNSLKPEDTAVYYCAAYLYGYEYWGQGTQVTVSS | high polyreactivity
QVQVVESGGGLVQAGGRLRLSFAASGFTFESYAMGWYRQAPGKERELVPAISDGGGDTYYADSVKGRFTISRDNAKNTVYLQMNSLKPEDTAVYYCAAEWDGNWSRCAGGYDYWGQGTQVTVSS | low polyreactivity
QVQVVESGGGLVQAGGSLGLSCAASGFTFGRYARGWYRQAPGKERELVAAISRGGSTYYADSVKGRFTISRDNAMYTDYLQMNSLKTEDTAVYYCNAAGLPTQLYYWGQGTQVTVSS | high polyreactivity
QVQVVESGGGLVQAGGSLGLSCAASGRTFRVYAMGWYRQAPGKERELVASITRGGGTYADSVKGRFTISRDNAKNTVYLQMNCLKPEDTAVYYCNARWQRSTGGRQRYDYWGLGTQVTVSS | high polyreactivity
